From US20240368301A1 (HANGZHOU JIUYUAN GENE ENGINEERING, published 2024)
Positions count from the first letter of the chain named. Numbers in names are those of the source. One block for each binder: values may come before it.

What was measured:
[1] = target: T1, SIRPα V1-his (ACRO, Cat #SIA-H5225) (human, UniProt P78324 31-370); assay: ELISA
T1 construct: not shown: His tag

[2] = target: T2, SIRPβ-his (Novoprotein, Cat #CS93) (UniProt O00241 30-371, limits assumed); assay: ELISA
[3] = target: T3, SIRPα-V8 on stably transfected cells (Homo sapiens (Human), UniProt P78324 31-504); assay: FACS on cells carrying the target
T3 construct: also called CHOZN-SIRPα-V8; 293T-SIRPα-V8
T3 sequence (P78324 other isoform, or with tags, fused parts or gaps limits assumed): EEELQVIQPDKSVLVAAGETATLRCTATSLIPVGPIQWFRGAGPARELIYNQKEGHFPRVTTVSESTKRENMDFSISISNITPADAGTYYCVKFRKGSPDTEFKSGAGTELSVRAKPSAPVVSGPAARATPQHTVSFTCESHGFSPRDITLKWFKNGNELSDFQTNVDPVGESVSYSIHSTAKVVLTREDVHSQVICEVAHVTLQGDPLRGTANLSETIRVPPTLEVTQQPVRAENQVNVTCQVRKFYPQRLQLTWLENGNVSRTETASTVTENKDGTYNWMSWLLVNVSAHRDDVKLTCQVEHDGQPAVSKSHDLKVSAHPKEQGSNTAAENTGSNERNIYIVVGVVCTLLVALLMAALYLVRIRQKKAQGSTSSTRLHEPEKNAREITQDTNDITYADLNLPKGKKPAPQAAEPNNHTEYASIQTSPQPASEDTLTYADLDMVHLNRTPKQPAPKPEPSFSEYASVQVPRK
Description: (§1) After washing, cells were stained with 0.2 μg goat anti-hIgG Fc-AF488 (Jackson ImmunoResearch, Cat #109-546-170) at 4° C. for 30 min. After washing again, cells were resuspended in 50 μL of DPBS/1% FBS and analyzed by FlowJo V10 and GraphPad Prism6 software.

[4] = target: T4, SIRPα-V1 on 293T-SIRPα-V1 cells (human, UniProt P78324 31-504); assay: FACS on cells carrying the target
T4 construct: Stably transfected cell line
T4 sequence (P78324 31-504): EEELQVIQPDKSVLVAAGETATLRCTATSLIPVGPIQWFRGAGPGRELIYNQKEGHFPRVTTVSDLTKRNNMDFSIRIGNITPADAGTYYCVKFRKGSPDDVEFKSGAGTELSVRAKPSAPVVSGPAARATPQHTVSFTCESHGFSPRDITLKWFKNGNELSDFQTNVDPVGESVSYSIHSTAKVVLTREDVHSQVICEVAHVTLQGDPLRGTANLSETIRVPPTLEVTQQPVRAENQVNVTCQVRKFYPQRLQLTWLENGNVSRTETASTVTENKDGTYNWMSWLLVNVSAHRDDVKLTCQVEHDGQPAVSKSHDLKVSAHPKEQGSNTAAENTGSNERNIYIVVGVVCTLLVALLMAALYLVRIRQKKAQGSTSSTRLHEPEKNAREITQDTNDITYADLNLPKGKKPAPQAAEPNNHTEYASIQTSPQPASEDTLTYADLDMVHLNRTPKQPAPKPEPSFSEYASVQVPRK
Description: as §1

[5] = target: T5, SIRPα-V2 on CHOZN-SIRPα-V2 cells (Homo sapiens (Human), UniProt P78324 31-504); assay: FACS on cells carrying the target
T5 sequence (P78324 other isoform, or with tags, fused parts or gaps limits assumed): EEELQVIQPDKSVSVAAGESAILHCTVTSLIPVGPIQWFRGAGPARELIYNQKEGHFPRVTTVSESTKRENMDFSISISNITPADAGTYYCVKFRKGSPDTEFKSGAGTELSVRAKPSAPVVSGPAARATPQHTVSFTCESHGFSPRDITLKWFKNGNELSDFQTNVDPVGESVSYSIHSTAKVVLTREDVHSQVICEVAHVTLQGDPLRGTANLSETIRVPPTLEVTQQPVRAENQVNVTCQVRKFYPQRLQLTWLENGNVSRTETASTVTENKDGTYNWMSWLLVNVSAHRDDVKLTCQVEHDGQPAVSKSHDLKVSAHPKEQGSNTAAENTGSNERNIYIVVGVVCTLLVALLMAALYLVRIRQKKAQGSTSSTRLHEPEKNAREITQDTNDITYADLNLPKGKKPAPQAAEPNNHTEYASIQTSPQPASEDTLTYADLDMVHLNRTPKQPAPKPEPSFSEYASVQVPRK
Description: as §1

[6] = target: T1, SIRPα V1-his (ACRO, Cat #SIA-H5225); assay: competition ELISA; coated SIRPα-V1-his, biotin-CD47 as competitor
Description: 100 μL of 2.5 μg/mL of recombinant SIRPα-V1-his and SIRPα-V2-his were coated overnight at 4° C. in Maxisorp ELISA 96-well plates. […] […] VSWFSP (SEQ ID NO: 40)] and incubated in the microtiter plate for 1 h at 37° C. After washing, each well was added with Streptavdin-HRP (Thermo, Cat #434323), substrate TMB (Beyotime, Cat #P0209-100 mL), and read by an enzyme marker.

[7] = target: T4, SIRPα-V1 on 293T-SIRPα-V1 cells; assay: competition FACS; 293T-SIRPα-V1 cells, FITC-labelled CD47 as competitor
Description: (§2) After washing, cells were analyzed by FlowJo V10 and GraphPad Prism6 software.

[8] = target: T5, SIRPα-V2 on CHOZN-SIRPα-V2 cells; assay: competition FACS; CHOZN-SIRPα-V2 cells, FITC-labelled CD47 as competitor
Description: as §2

[9] = target: T1, SIRPα V1-his (ACRO, Cat #SIA-H5225); assay: BLI (Octet RED 96), His-tagged antigen on Ni-NTA sensor, antibody in solution
Description: (§3) SIRPα V1-his (ACRO, Cat #SIA-H5225), SIRPα V2-his (made by transient transfection of HEK293F cells according to SEQ ID NO:38 sequence), SIRPβ-his (Novoprotein, Cat #CS93), SIRPγ-his (Sino Biological, Cat #11828-H08H) or cynomolgus macaques SIRPα-his (ACRO, Cat #SIA-C52H7) at 5 μg/mL was loaded to a Ni-NTA biosensor for 600 s. […] The data were fitted to calculate the affinity.

[10] = target: T2, SIRPβ-his (Novoprotein, Cat #CS93); assay: as above
Description: as §3

[11] = target: SIRPγ-his (Sino Biological, Cat #11828-H08H) (UniProt Q9P1W8 29-360); assay: as above
Sequence of SIRPγ-his (Sino Biological, Cat #11828-H08H) (Q9P1W8 29-360 limits assumed): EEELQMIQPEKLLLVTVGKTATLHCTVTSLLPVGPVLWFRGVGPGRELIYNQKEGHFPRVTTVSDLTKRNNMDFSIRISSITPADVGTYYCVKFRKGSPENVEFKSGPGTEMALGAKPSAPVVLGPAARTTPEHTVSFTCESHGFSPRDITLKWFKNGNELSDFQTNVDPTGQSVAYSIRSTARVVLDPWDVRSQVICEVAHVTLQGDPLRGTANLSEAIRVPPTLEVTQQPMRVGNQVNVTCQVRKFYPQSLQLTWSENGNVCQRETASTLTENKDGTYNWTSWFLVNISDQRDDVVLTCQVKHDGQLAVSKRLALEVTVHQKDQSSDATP
Description: as §3

[12] = target: T6, cynomolgus macaques SIRPα-his (ACRO, Cat #SIA-C52H7) (cynomolgus macaque, UniProt A0A2K5VYQ9 31-369); assay: as above
T6 construct: also called Monkey SIRPα; cynomolgus macaque SIRPα
T6 sequence: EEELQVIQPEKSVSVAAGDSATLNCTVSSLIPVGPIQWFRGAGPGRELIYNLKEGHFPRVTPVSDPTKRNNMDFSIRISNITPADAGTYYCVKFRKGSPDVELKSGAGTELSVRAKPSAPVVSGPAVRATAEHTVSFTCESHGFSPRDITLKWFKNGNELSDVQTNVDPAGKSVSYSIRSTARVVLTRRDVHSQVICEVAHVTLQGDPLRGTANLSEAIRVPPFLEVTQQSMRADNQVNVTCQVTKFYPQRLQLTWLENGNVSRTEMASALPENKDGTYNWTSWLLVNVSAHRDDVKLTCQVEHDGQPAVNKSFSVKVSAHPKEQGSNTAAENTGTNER
Description: as §3

[13] = target: T4, SIRPα-V1 on 293T-SIRPα-V1 cells; assay: FACS titration on 293T-SIRPα-V1 cells, goat anti-hIgG-AF488 (panel SIRPα-V1)
Description: (§4) 2×10⁵ per well of stable transfer construct cell lines 293T-SIRPα-V1 (SEQ ID NO: 2), CHOZN-SIRPα-V2 (SEQ ID NO: 38), and CHOZN-SIRPα-V8 (SEQ ID NO: 39) in logarithmic phase were dispended in 96-well U-shaped culture plates, […] After washing, the cells were incubated with 0.2 μg of goat anti-hIgG-AF488 for 30 min at 4° C., then resuspended in 50 μL of DPBS/1% FBS and analyzed by flow cytometry with FlowJo V10 and GraphPad Prism6 software.

[14] = target: T3, SIRPα-V8 on stably transfected cells; assay: FACS titration on CHOZN-SIRPα-V8 cells, goat anti-hIgG-AF488 (panel SIRPα-V8)
Description: as §4

[15] = target: T5, SIRPα-V2 on CHOZN-SIRPα-V2 cells; assay: FACS titration on CHOZN-SIRPα-V2 cells, goat anti-hIgG Fc-AF488 (panel SIRPα-V2)
Description: as §1

[16] = target: T1, SIRPα V1-his (ACRO, Cat #SIA-H5225); assay: SPR (Biacore), antibody captured by anti-Fc on CM5, 50 nM SIRPα V1-his injected, 1:1 model
Description: (§5) Using the Biacore analysis system, activators were prepared by mixing 400 mM EDC and 100 mM NHS and activated with a CM5 sensor chip at a flow rate of 10 μL/min for 420 s. Anti-Fc antibody at 30 μg/mL dissolved in 10 mM NaAc (pH 4.5) was injected into the channel at a flow rate of 10 μL/min and then closed with 1 M ethanolamine-HCl at a flow rate of 10 μL/min for 420 s. […] All experimental data were fitted using a 1:1 binding model.

[17] = target: T1, SIRPα V1-his (ACRO, Cat #SIA-H5225); assay: SPR (Biacore), antibody captured by anti-Fc on CM5, 50 nM SIRPα V1-his injected
Description: as §5

T2 sequence (O00241 30-371 limits assumed): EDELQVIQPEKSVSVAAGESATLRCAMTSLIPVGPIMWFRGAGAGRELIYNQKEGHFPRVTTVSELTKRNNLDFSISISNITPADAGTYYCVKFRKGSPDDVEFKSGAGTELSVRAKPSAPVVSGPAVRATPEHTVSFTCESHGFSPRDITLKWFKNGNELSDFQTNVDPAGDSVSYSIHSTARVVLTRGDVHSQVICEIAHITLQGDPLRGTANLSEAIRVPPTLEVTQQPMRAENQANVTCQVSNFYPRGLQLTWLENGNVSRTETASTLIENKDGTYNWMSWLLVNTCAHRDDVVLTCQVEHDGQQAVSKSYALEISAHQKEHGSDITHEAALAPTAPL
T1 sequence (P78324 31-370 limits assumed): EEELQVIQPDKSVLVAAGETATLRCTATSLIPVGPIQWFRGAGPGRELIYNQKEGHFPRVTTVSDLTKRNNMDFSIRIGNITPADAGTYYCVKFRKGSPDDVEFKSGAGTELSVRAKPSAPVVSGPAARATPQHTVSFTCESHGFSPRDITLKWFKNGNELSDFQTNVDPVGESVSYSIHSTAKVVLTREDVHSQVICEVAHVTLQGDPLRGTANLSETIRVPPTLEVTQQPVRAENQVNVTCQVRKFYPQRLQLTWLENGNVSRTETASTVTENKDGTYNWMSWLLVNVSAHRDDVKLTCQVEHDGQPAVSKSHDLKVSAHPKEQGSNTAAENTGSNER

EC50 [1]: 0.0488 nM
EC50 [2]: 0.271 nM
EC50 [3]: 0.407 nM
EC50 [4]: 0.615 nM
EC50 [5]: 0.245 nM
IC50 [6]: 5.26 nM
IC50 [7]: 1.74 nM
IC50 [8]: 6.42 nM
Kd [9]: 0.0111 nM
koff [9]: 1.16e-05 s⁻¹
kon [9]: 1.05e+06 M⁻¹ s⁻¹
Kd [10]: 0.0353 nM
koff [10]: 3.21e-05 s⁻¹
kon [10]: 909000 M⁻¹ s⁻¹
Kd [11]: 1.03 nM
koff [11]: 0.000731 s⁻¹
kon [11]: 709000 M⁻¹ s⁻¹
Kd [12]: 0.43 nM
koff [12]: 0.000498 s⁻¹
kon [12]: 1.16e+06 M⁻¹ s⁻¹
EC50 (read off the curve) [13]: ~5 nM
EC50 (read off the curve) [14]: ~2 nM
EC50 (read off the curve) [15]: ~4 nM
Kd [16]: 1.47 nM
koff [16]: 0.00113 s⁻¹
kon [16]: 770000 M⁻¹ s⁻¹
B1: AD4-12 (antibody, V domains shown)
VH: EVQLEESGPGLVAPSQSLSITCTVSGFSLTGYGVNWVRQPPGKGLEWLGIIWGDGSTDYNSALKSRLSISKDNSKSQVFLKMNSLQSDDTARYYCARAGKMDYWGQGTSVTVSS
VL: DIVLTQSPASLAVSLGQGATISCRASESVDSYGNSFMHWYQQKPGQPPKPLIYLASNLESGVPARFSGSGSRTDFTLTIDPVEADDAATYYCQQNNEYPWTFGGGTKLEIK
notes: Mouse variable domains joined to human kappa and human IgG1 constant regions (wild type = AD4-12-G1, L234A/L235A = AD4-12-G1lala); also called AD4-12-G1; AD4-12-G1lala

binding result [17]: binds
B2: Z2 (antibody, IgG1, V domains shown)
VH: QVQLQESGPGLVKPSQTLSLTCTVSGFSLTGYGVNWIRQPPGKGLEWIGIIWGDGSTDYNSALKSRVTISVDTSKNQVFLKLSSVTAADTAVYYCARAGKMDYWGQGTTVTVSS
VL: B1 VL with L15P, G18R, S22T, P50L, D80N, D85N, T89N, L108V
notes: also called humanized variant Z2
